Results as given in the supplement of paper PMC9112550, “Optimization of the antimicrobial peptide Bac7 by deep mutational scanning” (BMC Biology, 2022).

Test system: Escherichia coli TOP10
Assay: shrunken log2 fold change of peptide-encoding DNA abundance (4.5 h post-induction vs induction); higher = less antimicrobial activity (less host growth inhibition)
Conditions: time post-induction: 4.5 h; library: site-saturation at positions 5, 18, 19, 20
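Also: peptides expressed intracellularly from a pBAD plasmid library in pooled LB shake-flask culture, induced with 0.3% L-arabinose, DNA abundance read by NGS, three biological replicates, DESeq2 with apeglm shrinkage.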

Sequence	shrunken log2 fold change
RRIRSRPPRLPRPRPRPGSFPRP	0.209
RRIRSRPPRLPRPRPRPGSNPRP	-0.00709
RRIRSRPPRLPRPRPRPGSYPRP	-0.0952
RRIRSRPPRLPRPRPRPGTIPRP	-0.263
RRIRSRPPRLPRPRPRPGVDPRP	0.334
RRIRSRPPRLPRPRPRPGVPPRP	0.318
RRIRSRPPRLPRPRPRPGVQPRP	-0.0497
RRIRSRPPRLPRPRPRPGYKPRP	-0.084
RRIRSRPPRLPRPRPRPHAIPRP	-0.144
RRIRSRPPRLPRPRPRPHARPRP	0.0679
RRIRSRPPRLPRPRPRPHCQPRP	-0.159
RRIRSRPPRLPRPRPRPHDTPRP	-0.156
RRIRSRPPRLPRPRPRPHGTPRP	-0.161
RRIRSRPPRLPRPRPRPHIDPRP	-0.369
RRIRSRPPRLPRPRPRPHILPRP	-0.0674
RRIRSRPPRLPRPRPRPHIWPRP	-0.442
RRIRSRPPRLPRPRPRPHKAPRP	-0.1
RRIRSRPPRLPRPRPRPHLLPRP	-0.097
RRIRSRPPRLPRPRPRPHNFPRP	-0.49
RRIRSRPPRLPRPRPRPHNMPRP	-0.798
RRIRSRPPRLPRPRPRPHPIPRP	-0.214
RRIRSRPPRLPRPRPRPHPTPRP	0.129
RRIRSRPPRLPRPRPRPHPVPRP	0.12
RRIRSRPPRLPRPRPRPHQHPRP	-0.321
RRIRSRPPRLPRPRPRPHQKPRP	-0.189

Sequence	shrunken log2 fold change
RRIRSRPPRLPRPRPRPHRIPRP	-0.706
RRIRSRPPRLPRPRPRPHRYPRP	-0.606
RRIRSRPPRLPRPRPRPHSFPRP	0.176
RRIRSRPPRLPRPRPRPHSMPRP	-0.521
RRIRSRPPRLPRPRPRPHTGPRP	-0.703
RRIRSRPPRLPRPRPRPHVSPRP	-0.0482
RRIRSRPPRLPRPRPRPHWLPRP	-0.614
RRIRSRPPRLPRPRPRPHYCPRP	-0.289
RRIRSRPPRLPRPRPRPHYYPRP	-0.581
RRIRSRPPRLPRPRPRPIDTPRP	-0.117
RRIRSRPPRLPRPRPRPIFCPRP	-0.0166
RRIRSRPPRLPRPRPRPIFEPRP	0.0577
RRIRSRPPRLPRPRPRPIFWPRP	0.403
RRIRSRPPRLPRPRPRPIHCPRP	-0.452
RRIRSRPPRLPRPRPRPIHWPRP	0.151
RRIRSRPPRLPRPRPRPIIVPRP	0.0771
RRIRSRPPRLPRPRPRPIKWPRP	-0.197
RRIRSRPPRLPRPRPRPILCPRP	-0.35
RRIRSRPPRLPRPRPRPILDPRP	-0.152
RRIRSRPPRLPRPRPRPILEPRP	0.0161
RRIRSRPPRLPRPRPRPIMSPRP	-0.173
RRIRSRPPRLPRPRPRPINHPRP	-0.662
RRIRSRPPRLPRPRPRPIPQPRP	-0.402
RRIRSRPPRLPRPRPRPISCPRP	-0.0707
RRIRSRPPRLPRPRPRPISGPRP	-0.176

Sequence	shrunken log2 fold change
RRIRSRPPRLPRPRPRPISMPRP	-0.145
RRIRSRPPRLPRPRPRPITRPRP	-0.221
RRIRSRPPRLPRPRPRPITSPRP	-0.0517
RRIRSRPPRLPRPRPRPIYLPRP	-0.336
RRIRSRPPRLPRPRPRPKAGPRP	0.19
RRIRSRPPRLPRPRPRPKANPRP	0.126
RRIRSRPPRLPRPRPRPKCPPRP	-0.118
RRIRSRPPRLPRPRPRPKDNPRP	-0.232
RRIRSRPPRLPRPRPRPKEFPRP	-0.216
RRIRSRPPRLPRPRPRPKGQPRP	0.0791
RRIRSRPPRLPRPRPRPKHQPRP	0.155
RRIRSRPPRLPRPRPRPKIAPRP	0.0525
RRIRSRPPRLPRPRPRPKIFPRP	-0.0746
RRIRSRPPRLPRPRPRPKIWPRP	0.141
RRIRSRPPRLPRPRPRPKKNPRP	0.267
RRIRSRPPRLPRPRPRPKLTPRP	-0.06
RRIRSRPPRLPRPRPRPKQAPRP	-0.0378
RRIRSRPPRLPRPRPRPKRKPRP	0.458
RRIRSRPPRLPRPRPRPKSDPRP	-0.082
RRIRSRPPRLPRPRPRPKSRPRP	-0.0201
RRIRSRPPRLPRPRPRPKWNPRP	-0.154
RRIRSRPPRLPRPRPRPKWTPRP	-0.0493
RRIRSRPPRLPRPRPRPLAHPRP	-0.0709
RRIRSRPPRLPRPRPRPLANPRP	0.271
RRIRSRPPRLPRPRPRPLAPPRP	0.223

Sequence	shrunken log2 fold change
RRIRSRPPRLPRPRPRPLDAPRP	0.259
RRIRSRPPRLPRPRPRPLDSPRP	-0.0139
RRIRSRPPRLPRPRPRPLDTPRP	-0.157
RRIRSRPPRLPRPRPRPLFNPRP	-0.632
RRIRSRPPRLPRPRPRPLFVPRP	-0.188
RRIRSRPPRLPRPRPRPLGLPRP	0.204
RRIRSRPPRLPRPRPRPLHIPRP	-0.0437
RRIRSRPPRLPRPRPRPLIGPRP	-0.118
RRIRSRPPRLPRPRPRPLKAPRP	-0.234
RRIRSRPPRLPRPRPRPLKVPRP	-0.0229
RRIRSRPPRLPRPRPRPLNEPRP	-0.177
RRIRSRPPRLPRPRPRPLQNPRP	-0.0368
RRIRSRPPRLPRPRPRPLRFPRP	0.926
RRIRSRPPRLPRPRPRPLRNPRP	1.38
RRIRSRPPRLPRPRPRPLRSPRP	0.747
RRIRSRPPRLPRPRPRPLRTPRP	0.787
RRIRSRPPRLPRPRPRPLSHPRP	-0.462
RRIRSRPPRLPRPRPRPLTAPRP	-0.0374
RRIRSRPPRLPRPRPRPLTIPRP	-0.201
RRIRSRPPRLPRPRPRPLTQPRP	0.243
RRIRSRPPRLPRPRPRPLTYPRP	-0.132
RRIRSRPPRLPRPRPRPLVMPRP	-0.316
RRIRSRPPRLPRPRPRPLWSPRP	-0.0384
RRIRSRPPRLPRPRPRPLYIPRP	-0.276
RRIRSRPPRLPRPRPRPLYTPRP	-0.422

Sequence	shrunken log2 fold change
RRIRSRPPRLPRPRPRPMAQPRP	0.112
RRIRSRPPRLPRPRPRPMCTPRP	0.0289
RRIRSRPPRLPRPRPRPMCVPRP	-0.134
RRIRSRPPRLPRPRPRPMDDPRP	-0.0393
RRIRSRPPRLPRPRPRPMDHPRP	-0.187
RRIRSRPPRLPRPRPRPMHFPRP	0.0521
RRIRSRPPRLPRPRPRPMHVPRP	-0.00553
RRIRSRPPRLPRPRPRPMIDPRP	-0.249
RRIRSRPPRLPRPRPRPMIFPRP	-0.325
RRIRSRPPRLPRPRPRPMIVPRP	-0.377
RRIRSRPPRLPRPRPRPMKMPRP	-0.0963
RRIRSRPPRLPRPRPRPMKYPRP	-0.278
RRIRSRPPRLPRPRPRPMMQPRP	-0.241
RRIRSRPPRLPRPRPRPMNAPRP	0.0215
RRIRSRPPRLPRPRPRPMNGPRP	-0.205
RRIRSRPPRLPRPRPRPMPSPRP	-0.194
RRIRSRPPRLPRPRPRPMPTPRP	0.358
RRIRSRPPRLPRPRPRPMRDPRP	0.0126
RRIRSRPPRLPRPRPRPMREPRP	0.142
RRIRSRPPRLPRPRPRPMSFPRP	-0.374
RRIRSRPPRLPRPRPRPMSRPRP	0.0278
RRIRSRPPRLPRPRPRPMSSPRP	-0.313
RRIRSRPPRLPRPRPRPMTFPRP	-0.202
RRIRSRPPRLPRPRPRPMTHPRP	-0.469
RRIRSRPPRLPRPRPRPMWCPRP	0.136

Sequence	shrunken log2 fold change
RRIRSRPPRLPRPRPRPMWRPRP	0.1
RRIRSRPPRLPRPRPRPMYCPRP	0.0069
RRIRSRPPRLPRPRPRPMYNPRP	-0.557
RRIRSRPPRLPRPRPRPMYSPRP	-1.24
RRIRSRPPRLPRPRPRPMYWPRP	-0.134
RRIRSRPPRLPRPRPRPNCDPRP	-0.00648
RRIRSRPPRLPRPRPRPNDAPRP	0.0331
RRIRSRPPRLPRPRPRPNDFPRP	-0.19
RRIRSRPPRLPRPRPRPNDWPRP	0.179
RRIRSRPPRLPRPRPRPNFMPRP	-0.43
RRIRSRPPRLPRPRPRPNIIPRP	-0.774
RRIRSRPPRLPRPRPRPNIQPRP	-0.28
RRIRSRPPRLPRPRPRPNITPRP	-0.582
RRIRSRPPRLPRPRPRPNLTPRP	-0.15
RRIRSRPPRLPRPRPRPNMIPRP	-0.429
RRIRSRPPRLPRPRPRPNNLPRP	-1.04
RRIRSRPPRLPRPRPRPNPMPRP	-0.111
RRIRSRPPRLPRPRPRPNQSPRP	-0.0432
RRIRSRPPRLPRPRPRPNRGPRP	0.0138
RRIRSRPPRLPRPRPRPNSDPRP	-0.0183
RRIRSRPPRLPRPRPRPNSMPRP	-0.215
RRIRSRPPRLPRPRPRPNTPPRP	-0.616
RRIRSRPPRLPRPRPRPNVPPRP	-0.131
RRIRSRPPRLPRPRPRPNWKPRP	0.00354
RRIRSRPPRLPRPRPRPNYRPRP	-0.366
